From patent US7033593

Tests used:
[1] = molecular target: T1, CD4-gp140 complex (HIV 89.6 gp140 bound to sCD4) (HIV 89.6 (Clade B) primary isolate), Q73372; assay: SPR, row CD4+gp140 (89.6 gp140); column headed Kd s-1
[2] = molecular target: T2, CD4-gp140-D1 complex (HIV 89.6 gp140 bound to sCD4 and the CCR5-D1 peptide) (HIV 89.6 (Clade B) primary isolate; human), Q73372; assay: SPR, RU bound at steady state, row CD4+gp140+R5-D1 (89.6 gp140)
[3] = molecular target: T1, CD4-gp140 complex (HIV 89.6 gp140 bound …); assay: SPR, row CD4-gp140
[4] = molecular target: T1, CD4-gp140 complex (HIV 89.6 gp140 bound …); assay: SPR, row CD4+gp140 (89.6 gp140); column headed Ka
[5] = molecular target: T2, CD4-gp140-D1 complex (HIV 89.6 gp140 …); assay: SPR, row CD4+gp140+R5-D1 (89.6 gp140)
[6] = molecular target: T2, CD4-gp140-D1 complex (HIV 89.6 gp140 …); assay: SPR, row CD4+gp140+R5-D1 (89.6 gp140); column headed Kd s-1
[7] = molecular target: T2, CD4-gp140-D1 complex (HIV 89.6 gp140 …); assay: SPR, row CD4+gp140+R5-D1 (89.6 gp140); column headed Ka
[8] = molecular target: CD4-gp120 complex (HIV 89.6 gp120 bound to sCD4) (HIV 89.6 (Clade B) primary isolate), Q73372; assay: SPR, row CD4-gp120
[9] = molecular target: T1, CD4-gp140 complex (HIV 89.6 gp140 bound …); assay: SPR, RU bound at steady state, row CD4+gp140 (89.6 gp140)
[10] = molecular target: T1, CD4-gp140 complex (HIV 89.6 gp140 bound …); assay: SPR, row CD4+gp140 (89.6 gp140)
[11] = molecular target: T1, CD4-gp140 complex (HIV 89.6 gp140 bound …); assay: SPR, peptide over gp140 captured on immobilised CD4
[12] = molecular target: soluble HIV 89.6 gp140 envelope protein (cleaved gp140 preparation) (HIV 89.6 (Clade B) primary isolate), Q73372; assay: SPR, peptide over directly immobilised 89.6 gp140, no CD4
[13] = molecular target: T1, CD4-gp140 complex (HIV 89.6 gp140 bound …); assay: SPR (FIG. 10D); the legend of the same figure prints 280 nM

Work on WMEWDREINNYTSLIHSLIEESQNQLEKNEQELLEL (modifications not checked) [HR-2 peptide T649Q26L] yielded a koff [1] of 0.0146 s⁻¹, a Rm [2] of 64 RU and a Kd [3] of 1200 nM. For the same binder, the koff [3] was 0.0011 s⁻¹, the kon [3] was 880 M⁻¹ s⁻¹ and the t1/2 [3] was 630 s. It also gave a kon [4] of 6200 M⁻¹ s⁻¹, a Kd [5] of 1000 nM and a t1/2 [5] of 131 s. For the same binder, the koff [6] was 0.0053 s⁻¹, the kon [7] was 5100 M⁻¹ s⁻¹ and the Kd [8] was 2540 nM. The koff [8] was 0.0032 s⁻¹, the kon [8] was 1260 M⁻¹ s⁻¹ and the t1/2 [8] was 217 s. The Rm [9] was 53 RU, the Kd [10] was 2400 nM and the t1/2 [10] was 48 s.

With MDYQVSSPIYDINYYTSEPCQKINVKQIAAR (modifications not checked) [CCR5-D1 peptide] the Kd [11] was 280 nM, the koff [11] was 0.00256 s⁻¹ and the kon [11] was 9000 M⁻¹ s⁻¹. The Kd [12] was 1000 nM, the koff [12] was 0.01 s⁻¹ and the Kd [13] was 280 nM.
